Experimental data: article PMC7022712, “Functional Analysis of DNMT3A DNA Methyltransferase Mutations Reported in Patients with Acute Myeloid Leukemia”

What was measured:
Dnmt3a-CD F162V = Dnmt3a-CD F162V (Mus musculus, UniProt O88508 608-908, F748V); assay: fluorescence polarization; 100 uM AdoHcy; no plateau reached; Buffer A: 20 mM HEPES pH 7.5, 100 mM KCl, 1 mM EDTA, 1 mM DTT, 100 uM AdoHcy, 25 C; DNA 100 nM (Methods) or 10 nM (Figure 6 legend); Hill fit; conditions: protein: recombinant; tags: C-terminal His6; chain copies: 2; label: 5'-FAM on strand 1 via aminohexyl linker; blunt
Dnmt3a-CD WT = Dnmt3a-CD WT (Mus musculus, UniProt O88508 608-908); assay: fluorescence polarization; 100 uM AdoHcy; Buffer A: 20 mM HEPES pH 7.5, 100 mM KCl, 1 mM EDTA, 1 mM DTT, 100 uM AdoHcy, 25 C; DNA 100 nM (Methods) or 10 nM (Figure 6 legend); Hill fit; conditions: protein: recombinant; tags: C-terminal His6 (Results); chain copies: 2; label: 5'-FAM on strand 1 via aminohexyl linker; blunt
Dnmt3a-CD R45W = Dnmt3a-CD R45W (Mus musculus, UniProt O88508 608-908, R631W); assay: as above; conditions: protein: recombinant; tags: C-terminal His6; chain copies: 2; label: 5'-FAM on strand 1 via aminohexyl linker; blunt
Dnmt3a-CD S124C = Dnmt3a-CD S124C (Mus musculus, UniProt O88508 608-908, S710C); assay: as above; conditions: protein: recombinant; tags: C-terminal His6; chain copies: 2; label: 5'-FAM on strand 1 via aminohexyl linker; blunt
Dnmt3a-CD R146H = Dnmt3a-CD R146H (Mus musculus, UniProt O88508 608-908, R732H); assay: as above; conditions: protein: recombinant; tags: C-terminal His6; chain copies: 2; label: 5'-FAM on strand 1 via aminohexyl linker; blunt
Dnmt3a-CD R146H, sequence (O88508 608-908 R732H): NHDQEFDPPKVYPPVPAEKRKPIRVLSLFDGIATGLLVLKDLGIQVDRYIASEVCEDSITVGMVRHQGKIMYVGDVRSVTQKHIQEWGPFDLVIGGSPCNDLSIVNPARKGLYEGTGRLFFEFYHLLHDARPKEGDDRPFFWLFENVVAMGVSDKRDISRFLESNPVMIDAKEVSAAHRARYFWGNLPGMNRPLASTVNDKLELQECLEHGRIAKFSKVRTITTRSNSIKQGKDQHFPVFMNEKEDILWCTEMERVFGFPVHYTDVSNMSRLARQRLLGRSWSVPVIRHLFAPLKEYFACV

Dnmt3a-CD R45W, sequence (O88508 608-908 R631W): as the sequence (O88508 608-908 R732H) above, with R24W, H125R counted along it
Dnmt3a-CD F162V, sequence (O88508 608-908 F748V): as the sequence (O88508 608-908 R732H) above, with H125R, F141V counted along it
Dnmt3a-CD WT, sequence (O88508 608-908): as the sequence (O88508 608-908 R732H) above, with H125R counted along it
Dnmt3a-CD S124C, sequence (O88508 608-908 S710C): as the sequence (O88508 608-908 R732H) above, with S103C, H125R counted along it

B1: fCG/CG (dsDNA)
DNA 1: CTGAATACTACTTGCGCTCTCTAACCTGAT
DNA 2: ATCAGGTTAGAGAGCGCAAGTAGTATTCAG
- Kd (Dnmt3a-CD F162V): 232 ± 32 nM
- Kd (Dnmt3a-CD WT): 77 ± 6 nM
- binding result (Dnmt3a-CD R45W): no binding
- Kd (Dnmt3a-CD S124C): 127 ± 44 nM
- binding result (Dnmt3a-CD R146H): no binding
